Among the data in patent US20250197455A1 are ELISA OD450 (raw) values, retold here.

The target of one assay is BG505 N28 JCBv3 660. Kind of assay: supernatant ELISA; row BG505.RnS7Mut-N28-JCBv3-660.
A further assay has as its target BG505 N28 502 660-665. Kind of assay: supernatant ELISA; row BG505.RnS7Mut-N28-502-660-665. On the technique in general: In an ELISA, binding on a coated surface is turned into a signal by an enzyme label.
The next assay deals with 6931-DS-N28-502-660-665. The assay can be described thus: supernatant ELISA; row scFc-3C-6931-DS-28-502-660-665.
The next assay has as its target 6931-DS-N28-JCBv3-660. Kind of assay: supernatant ELISA; row scFc-3C-6931-DS-28_JCB04V3-660.
A further assay addresses BG505 N28 JCBv2 660-665. The assay can be described thus: supernatant ELISA; row BG505.RnS7Mut-N28-JCBv2-660-665.
The target in assay [1] is BG505 glycan-base trimer, VRC 7873 (4571_RnS7Mutv1-2G-3Mut-N28-JCBv3-N660-N665.667_613S_620S) (BG505-based) (HIV-1 (BG505, Clade A)). The assay can be described thus: supernatant ELISA; row BG505.RnS7Mut-N28-JCBv3-660-665.
Assay [2] addresses protein-base BG505 trimer, BG505-RnS7Mutv1-DS-SOSIP-2G-3Mut (HIV-1 (BG505, Clade A)). Kind of assay: supernatant ELISA; row BG505-RnS(7MutV1)-2G-3mut-DS_SOSIP-scFc.
Assay [3] addresses ConC glycan-base trimer, VRC 7678 (6931_DS-N28-JCBv3-N660-N665.667) (ConC based) (HIV-1 (consensus clade C, ConC)). The assay can be described thus: supernatant ELISA; row scFc-3C-6931-DS-28_JCB04V3-660-665.

Turning to 3BNC117 (antibody), the ELISA OD450 (raw) in the assay with BG505 N28 JCBv3 660 was found to be 1.01 OD450; with BG505 N28 502 660-665, 0.841 OD450; with 6931-DS-N28-502-660-665, 1.03 OD450; in the assay with 6931-DS-N28-JCBv3-660, 1.13 OD450; in the assay with BG505 N28 JCBv2 660-665, 0.952 OD450; in assay [1], 0.981 OD450. The substance further came in with an ELISA OD450 (raw) in assay [2] of 1.04 OD450.

Take PGT122 (antibody): the ELISA OD450 (raw) was 0.906 OD450 in the assay with BG505 N28 JCBv3 660; 0.864 OD450 with BG505 N28 502 660-665; 1 OD450 with BG505 N28 JCBv2 660-665; 0.874 OD450 in assay [1]; 1.48 OD450 in assay [3]; 1.05 OD450 in assay [2].

For the substance 35O22 (antibody), the ELISA OD450 (raw) with BG505 N28 JCBv3 660 is 0.728 OD450; with BG505 N28 502 660-665, 0.785 OD450; in the assay with 6931-DS-N28-502-660-665 it was 0.916 OD450; in the assay with BG505 N28 JCBv2 660-665, 0.628 OD450; in assay [1], 0.632 OD450; in assay [3], 0.954 OD450. Further, in assay [2], the ELISA OD450 (raw) was 1.01 OD450.

Take N6 (antibody): the ELISA OD450 (raw) was found to be 0.771 OD450 with BG505 N28 JCBv3 660; 0.666 OD450 in the assay with BG505 N28 502 660-665; 0.876 OD450 with 6931-DS-N28-502-660-665; 0.918 OD450 with 6931-DS-N28-JCBv3-660; 0.816 OD450 with BG505 N28 JCBv2 660-665; 0.795 OD450 in assay [1]. In assay [2], the ELISA OD450 (raw) came out at 0.811 OD450.

Regarding PGT145 (antibody), the ELISA OD450 (raw) with BG505 N28 JCBv3 660 was determined as 0.427 OD450; with BG505 N28 502 660-665 it was 0.531 OD450; in the assay with 6931-DS-N28-502-660-665 it was 0.938 OD450; in assay [1], 0.219 OD450; in assay [2], 0.683 OD450.

Consider PGDM1400 (antibody), for which the ELISA OD450 (raw) with BG505 N28 JCBv3 660 worked out at 1.09 OD450; with BG505 N28 502 660-665, 0.982 OD450; in the assay with 6931-DS-N28-502-660-665 it was 0.681 OD450; with 6931-DS-N28-JCBv3-660, 0.861 OD450; in the assay with BG505 N28 JCBv2 660-665, 1.03 OD450; in assay [1], 1.07 OD450. The figures for the ELISA OD450 (raw) in assay [3] and in assay [2] were 0.949 OD450 and 0.985 OD450, respectively.

As to VRC26.25 (antibody), the ELISA OD450 (raw) with BG505 N28 JCBv3 660 turned out to be 0.652 OD450; in the assay with BG505 N28 502 660-665, 0.555 OD450; with 6931-DS-N28-502-660-665, 0.874 OD450; in the assay with 6931-DS-N28-JCBv3-660 it was 0.979 OD450; in the assay with BG505 N28 JCBv2 660-665, 0.544 OD450; in assay [1], 0.564 OD450. Moreover, the ELISA OD450 (raw) was 0.798 OD450 in assay [3] and 0.71 OD450 in assay [2].

For the substance VRC34.01 (antibody), the ELISA OD450 (raw) is 0.648 OD450 with BG505 N28 JCBv3 660; 0.437 OD450 in the assay with BG505 N28 502 660-665; 0.718 OD450 in the assay with 6931-DS-N28-502-660-665; 0.89 OD450 with 6931-DS-N28-JCBv3-660; 0.729 OD450 with BG505 N28 JCBv2 660-665; 0.682 OD450 in assay [1]. For the same substance, the ELISA OD450 (raw) in assay [3] turned out to be 1.05 OD450; in assay [2], 0.783 OD450.

For F105 (antibody), the ELISA OD450 (raw) with BG505 N28 JCBv3 660 was 0.196 OD450; in the assay with BG505 N28 502 660-665, 0.106 OD450; with 6931-DS-N28-502-660-665, 0.337 OD450; with 6931-DS-N28-JCBv3-660, 0.432 OD450; with BG505 N28 JCBv2 660-665 it was 0.141 OD450; in assay [1] it was 0.157 OD450. Also, the ELISA OD450 (raw) in assay [2] was 0.134 OD450.
